In article PMC3410980 (Bioconjugate chemistry, 2012):
Non-standard residues stand in square brackets, D forms with d. Residues, ends and D or L forms follow the SMILES beside them. *: point of attachment. DOTA = O=C(O)CN1CCN(CC(=O)O)CCN(CC(=O)*)CCN(CC(=O)O)CC1; Nspe = C[C@H](NCC(=O)O)c1ccccc1; Nphe = O=C(O)CNCc1ccccc1; Nlys = NCCCCNCC(=O)O

Key:
[1] = tail vein injection, 0.25-24 h
[2] = in vivo; conditions: Balb/c, mouse, total radioactivity
[3] = hydrophobicity by reverse phase analytical HPLC; type: physicochemical; conditions: retention time in reverse phase HPLC column (C18, 55 °C)

Compound	excretion route, kidney activity and clearance seen by PET [1]	tissue uptake at 2 h ([2]; kidney, iv) [%ID/g]	tissue uptake at 2 h ([2]; liver, iv) [%ID/g]	tissue uptake at 24 h ([2]; liver, iv) [%ID/g]	tissue uptake at 2 h ([2]; stomach, po) [%ID/g]	tissue uptake at 24 h ([2]; stomach, po) [%ID/g]	hydrophobicity (tR in minutes) [3] [min]	oral absorption / bioavailability (administered orally)	lower liver uptake relative to ^64Cu-1 (intravenous)	tissue uptake at 24 h ([2]; kidney, iv) [%ID/g]
C[C@@H](c1ccccc1)N(CC(N)=O)C(=O)CN(C(=O)CN(CCCCN)C(=O)CN(C(=O)CN(C(=O)CN(CCCCN)C(=O)CN(C(=O)CN(C(=O)CN(CCCCN)C(=O)CN(C(=O)CN(C(=O)CN(CCCCN)C(=O)CN1CCN(CC(=O)O)CCN(CC(=O)O)CCN(CC(=O)O)CC1)[C@@H](C)c1ccccc1)[C@@H](C)c1ccccc1)[C@@H](C)c1ccccc1)[C@@H](C)c1ccccc1)[C@@H](C)c1ccccc1)[C@@H](C)c1ccccc1)[C@@H](C)c1ccccc1 [^64Cu-1, metal not drawn] ({DOTA}-[Nlys][Nspe][Nspe][Nlys][Nspe][Nspe][Nlys][Nspe][Nspe][Nlys][Nspe][Nspe]-NH2)	main excretion route is likely hepatic	14.4 ± 0.9	138 ± 13.4	95.6 ± 10.5	4.82 ± 1.44	0.54 ± 0.22				
NCCCCN(CC(=O)N(CC(=O)N(CC(=O)N(CCCCN)CC(=O)N(CC(=O)N(CC(=O)N(CCCCN)CC(=O)N(CC(=O)N(CC(=O)N(CCCCN)CC(=O)N(CC(=O)N(CC(N)=O)Cc1ccccc1)Cc1ccccc1)Cc1ccccc1)Cc1ccccc1)Cc1ccccc1)Cc1ccccc1)Cc1ccccc1)Cc1ccccc1)C(=O)CN1CCN(CC(=O)O)CCN(CC(=O)O)CCN(CC(=O)O)CC1 [Compound 2] ({DOTA}-[Nlys][Nphe][Nphe][Nlys][Nphe][Nphe][Nlys][Nphe][Nphe][Nlys][Nphe][Nphe]-NH2)							24.1			
NCCCCN(CC(=O)N(CC(=O)N(CC(=O)N(CCCCN)CC(=O)N(CC(=O)N(CC(=O)N(CCCCN)CC(=O)N(CC(=O)N(CC(=O)N(CCCCN)CC(=O)N(CC(=O)N(CC(N)=O)Cc1ccccc1)Cc1ccccc1)Cc1ccccc1)Cc1ccccc1)Cc1ccccc1)Cc1ccccc1)Cc1ccccc1)Cc1ccccc1)C(=O)CN1CCN(CC(=O)O)CCN(CC(=O)O)CCN(CC(=O)O)CC1 [^64Cu-2, metal not drawn] ({DOTA}-[Nlys][Nphe][Nphe][Nlys][Nphe][Nphe][Nlys][Nphe][Nphe][Nlys][Nphe][Nphe]-NH2)	main excretion route is likely hepatic	12.6 ± 2.3	125 ± 16.8	72.2 ± 11.3						
C[C@@H](c1ccccc1)N(CC(N)=O)C(=O)CN(CCCCN)C(=O)CN(C(=O)CN(C(=O)CN(CCCCN)C(=O)CN(C(=O)CN(C(=O)CN(CCCCN)C(=O)CN(C(=O)CN(C(=O)CN(CCCCN)C(=O)CN1CCN(CC(=O)O)CCN(CC(=O)O)CCN(CC(=O)O)CC1)[C@@H](C)c1ccccc1)[C@@H](C)c1ccccc1)[C@@H](C)c1ccccc1)[C@@H](C)c1ccccc1)[C@@H](C)c1ccccc1)[C@@H](C)c1ccccc1 [Compound 3] ({DOTA}-[Nlys][Nspe][Nspe][Nlys][Nspe][Nspe][Nlys][Nspe][Nspe][Nlys][Nspe]-NH2)							23.9			
C[C@@H](c1ccccc1)N(CC(N)=O)C(=O)CN(CCCCN)C(=O)CN(C(=O)CN(C(=O)CN(CCCCN)C(=O)CN(C(=O)CN(C(=O)CN(CCCCN)C(=O)CN(C(=O)CN(C(=O)CN(CCCCN)C(=O)CN1CCN(CC(=O)O)CCN(CC(=O)O)CCN(CC(=O)O)CC1)[C@@H](C)c1ccccc1)[C@@H](C)c1ccccc1)[C@@H](C)c1ccccc1)[C@@H](C)c1ccccc1)[C@@H](C)c1ccccc1)[C@@H](C)c1ccccc1 [^64Cu-3, metal not drawn] ({DOTA}-[Nlys][Nspe][Nspe][Nlys][Nspe][Nspe][Nlys][Nspe][Nspe][Nlys][Nspe]-NH2)	highest kidney activity of all three peptoids	~31.2	56.7 ± 1.8	47.3 ± 4.4				poor bioavailability	more than 50%	19.3 ± 2.6
